Experimental data: article PMC11020753, “Contribution of amino acids in the active site of dipeptidyl peptidase 4 to the catalytic action of the enzyme” (PLOS ONE, 2024)

Substrate: CC(C)C[C@H](NC(=O)[C@@H]1CCCN1C(=O)[C@@H](N)C(C)C)C(=O)O
Assay: purified protein, by the assay type
Settings: T = 30 °C, 100 mM Tris-HCl, pH 7.6, substrate concentration 25 μM
[1] = other: wild type DP4, cleavage of diprotin B as substrate
[2] = other: R125A, cleavage of diprotin B as substrate

Protein | Km [1] | kcat [1] | kcat/Km [1] | Km [2] | kcat [2] | kcat/Km [2]
wild type DP4 (Homo sapiens) (protein) ADSRKTYTLTDYLKNTYRLKLYSLRWISDHEYLYKQENNILVFNAEYGNSSVFLENSTFDEFGHSINDYSISPDGQFILLEYNYVKQWRHSYTASYDIYDLNKRQLITEERIPNNTQWVTWSPVGHKLAYVWNNDIYVKIEPNLPSYRITWTGKEDIIYNGITDWVYEEEVFSAYSALWWSPNGTFLAYAQFNDTEVPLIEYSFYSDESLQYPKTVRVPYPKAGAVNPTVKFFVVNTDSLSSVTNATSIQITAPASMLIGDHYLCDVTWATQERISLQWLRRIQNYSVMDICDYDESSGRWNCLVARQHIEMSTTGWVGRFRPSEPHFTLDGNSFYKIISNEEGYRHICYFQIDKKDCTFITKGTWEVIGIEALTSDYLYYISNEYKGMPGGRNLYKIQLSDYTKVTCLSCELNPERCQYYSVSFSKEAKYYQLRCSGPGLPLYTLHSSVNDKGLRVLEDNSALDKMLQNVQMPSKKLDFIILNETKFWYQMILPPHFDKSKKYPLLLDVYAGPCSQKADTVFRLNWATYLASTENIIVASFDGRGSGYQGDKIMHAINRRLGTFEVEDQIEAARQFSKMGFVDNKRIAIWGWSYGGYVTSMVLGSGSGVFKCGIAVAPVSRWEYYDSVYTERYMGLPTPEDNLDHYRNSTVMSRAENFKQVEYLLIHGTADDNVHFQQSAQISKALVDVGVDFQAMWYTDEDHGIASSTAHQHIYTHMSHFIKQCFSLP | (7.2 ± 0.58) · 10^−6 M | 7 s⁻¹ | 970000 M⁻¹ s⁻¹ |  |  | 
DP4 variant R125A (Homo sapiens; R125A) (protein) ADSRKTYTLTDYLKNTYRLKLYSLRWISDHEYLYKQENNILVFNAEYGNSSVFLENSTFDEFGHSINDYSISPDGQFILLEYNYVKQWAHSYTASYDIYDLNKRQLITEERIPNNTQWVTWSPVGHKLAYVWNNDIYVKIEPNLPSYRITWTGKEDIIYNGITDWVYEEEVFSAYSALWWSPNGTFLAYAQFNDTEVPLIEYSFYSDESLQYPKTVRVPYPKAGAVNPTVKFFVVNTDSLSSVTNATSIQITAPASMLIGDHYLCDVTWATQERISLQWLRRIQNYSVMDICDYDESSGRWNCLVARQHIEMSTTGWVGRFRPSEPHFTLDGNSFYKIISNEEGYRHICYFQIDKKDCTFITKGTWEVIGIEALTSDYLYYISNEYKGMPGGRNLYKIQLSDYTKVTCLSCELNPERCQYYSVSFSKEAKYYQLRCSGPGLPLYTLHSSVNDKGLRVLEDNSALDKMLQNVQMPSKKLDFIILNETKFWYQMILPPHFDKSKKYPLLLDVYAGPCSQKADTVFRLNWATYLASTENIIVASFDGRGSGYQGDKIMHAINRRLGTFEVEDQIEAARQFSKMGFVDNKRIAIWGWSYGGYVTSMVLGSGSGVFKCGIAVAPVSRWEYYDSVYTERYMGLPTPEDNLDHYRNSTVMSRAENFKQVEYLLIHGTADDNVHFQQSAQISKALVDVGVDFQAMWYTDEDHGIASSTAHQHIYTHMSHFIKQCFSLP |  |  |  | (3.7 ± 0.26) · 10^−4 M | 7.7 s⁻¹ | 21000 M⁻¹ s⁻¹
